Assay results taken from the Human Domainome abundance scans (Beltran et al. 2025).
± gives the uncertainty stated by the source.

B1: Intersectin-1, residues 1156 to 1213; numbered along this chain, Q15811 (parent)
chain: AVCQVIGMYDYTAQNDDELAFNKGQIINVLNKEDPDWWKGEVNGQVGLFPSNYVKLTT

Variants of: B1
Test: abundance fitness (aPCA) (normalised: wild type 0, dead -1); higher = more abundant; growth selection in yeast, the domain comes from the species named
Conditions: Homo sapiens
With AVCQVIGMYDYTAQNDDELAFNKGQIINVLNKEDPDWWKGEVNGQVGLDPSNYVKLTT [F49D] the abundance fitness was -0.485 ± 0.19.
AVCQVIGMYDYTAQNDDELAFNKGQIINVLNKEDPDWWKGEVNGQVGLIPSNYVKLTT [F49I] gave an abundance fitness of -0.184 ± 0.13.
Variant AVCQVIGMYDYTAQNDDELAFNKGQIINVLNKEDPDWWKGEVNGQVGLSPSNYVKLTT [F49S] has an abundance fitness of -0.817 ± 0.12.
With AVCQVIGMYDYTAQNDDELAFNKGQIINVLNKEDPDWWKGEVNGQVGLQPSNYVKLTT [F49Q] the abundance fitness was -0.661 ± 0.15.
In the case of AVCQVIGMYDYTAQNDDELAFNKGQIINVLNKEDPDWWKGEVNGQVGLTPSNYVKLTT [F49T], the abundance fitness is reported as -0.861 ± 0.18.
In the case of AVCQVIGMYDYTAQNDDELAFNKGQIINVLNKEDPDWWKGEVNGQVGLVPSNYVKLTT [F49V], the abundance fitness is reported as -0.391 ± 0.078.
For AVCQVIGMYDYTAQNDDELAFNKGQIINVLNKEDPDWWKGEVNGQVGLAPSNYVKLTT [F49A], the abundance fitness was -0.743 ± 0.11.
Work on AVCQVIGMYDYTAQNDDELAFNKGQIINVLNKEDPDWWKGEVNGQVGLNPSNYVKLTT [F49N] yielded an abundance fitness of -0.431 ± 0.21.
Variant AVCQVIGMYDYTAQNDDELAFNKGQIINVLNKEDPDWWKGEVNGQVGLPPSNYVKLTT [F49P] has an abundance fitness of -0.814 ± 0.18.
AVCQVIGMYDYTAQNDDELAFNKGQIINVLNKEDPDWWKGEVNGQVGLMPSNYVKLTT [F49M] gave an abundance fitness of -0.725 ± 0.12.
AVCQVIGMYDYTAQNDDELAFNKGQIINVLNKEDPDWWKGEVNGQVGLLPSNYVKLTT [F49L] gave an abundance fitness of -0.527 ± 0.088.
Variant AVCQVIGMYDYTAQNDDELAFNKGQIINVLNKEDPDWWKGEVNGQVGLCPSNYVKLTT [F49C] has an abundance fitness of -0.871 ± 0.21.
For AVCQVIGMYDYTAQNDDELAFNKGQIINVLNKEDPDWWKGEVNGQVGLGPSNYVKLTT [F49G], the abundance fitness was -0.829 ± 0.069.
Work on AVCQVIGMYDYTAQNDDELAFNKGQIINVLNKEDPDWWKGEVNGQVGLEPSNYVKLTT [F49E] yielded an abundance fitness of -0.816 ± 0.11.
For AVCQVIGMYDYTAQNDDELAFNKGQIINVLNKEDPDWWKGEVNGQVGLKPSNYVKLTT [F49K], the abundance fitness was -0.84 ± 0.14.
With AVCQVIGMYDYTAQNDDELAFNKGQIINVLNKEDPDWWKGEVNGQVGLRPSNYVKLTT [F49R] the abundance fitness was -0.862 ± 0.09.
For AVCQVIGMYDYTAQNDDELAFNKGQIINVLNKEDPDWWKGEVNGQVGLYPSNYVKLTT [F49Y], the abundance fitness was -0.782 ± 0.28.
Variant AVCQVIGMYDYTAQNDDELAFNKGQIINVLNKEDPDWWKGEVNGQVGLWPSNYVKLTT [F49W] has an abundance fitness of -0.76 ± 0.096.
In the case of AVCQVIGMYDYTAQNDDELAFNKGQIINVLNKEDPDWWKGEVNGQVDLFPSNYVKLTT [G47D], the abundance fitness is reported as -0.833 ± 0.14.
AVCQVIGMYDYTAQNDDELAFNKGQIINVLNKEDPDWWKGEVNGQVCLFPSNYVKLTT [G47C] gave an abundance fitness of -0.974 ± 0.2.
Work on AVCQVIGMYDYTAQNDDELAFNKGQIINVLNKEDPDWWKGEVNGQVSLFPSNYVKLTT [G47S] yielded an abundance fitness of -0.828 ± 0.12.
AVCQVIGMYDYTAQNDDELAFNKGQIINVLNKEDPDWWKGEVNGQVWLFPSNYVKLTT [G47W] gave an abundance fitness of -0.802 ± 0.16.
Work on AVCQVIGMYDYTAQNDDELAFNKGQIINVLNKEDPDWWKGEVNGQVRLFPSNYVKLTT [G47R] yielded an abundance fitness of -0.786 ± 0.098.
Variant AVCQVIGMYDYTAQNDDELAFNKGQIINVLNKEDPDWWKGEVNGQVKLFPSNYVKLTT [G47K] has an abundance fitness of -0.582 ± 0.16.
Variant AVCQVIGMYDYTAQNDDELAFNKGQIINVLNKEDPDWWKGEVNGQVVLFPSNYVKLTT [G47V] has an abundance fitness of -0.796 ± 0.11.
AVCQVIGMYDYTAQNDDELAFNKGQIINVLNKEDPDWWKGEVNGQVTLFPSNYVKLTT [G47T] gave an abundance fitness of -0.941 ± 0.18.
Variant AVCQVIGMYDYTAQNDDELAFNKGQIINVLNKEDPDWWKGEVNGQVPLFPSNYVKLTT [G47P] has an abundance fitness of -0.867 ± 0.18.
With AVCQVIGMYDYTAQNDDELAFNKGQIINVLNKEDPDWWKGEVNGQVILFPSNYVKLTT [G47I] the abundance fitness was -0.846 ± 0.17.
AVCQVIGMYDYTAQNDDELAFNKGQIINVLNKEDPDWWKGEVNGQVQLFPSNYVKLTT [G47Q] showed an abundance fitness of -0.6 ± 0.24.
Variant AVCQVIGMYDYTAQNDDELAFNKGQIINVLNKEDPDWWKGEVNGQVYLFPSNYVKLTT [G47Y] has an abundance fitness of -0.908 ± 0.25.
AVCQVIGMYDYTAQNDDELAFNKGQIINVLNKEDPDWWKGEVNGQVLLFPSNYVKLTT [G47L] showed an abundance fitness of -0.881 ± 0.13.
With AVCQVIGMYDYTAQNDDELAFNKGQIINVLNKEDPDWWKGEVNGQVHLFPSNYVKLTT [G47H] the abundance fitness was -0.943 ± 0.34.
With AVCQVIGMYDYTAQNDDELAFNKGQIINVLNKEDPDWWKGEVNGQVFLFPSNYVKLTT [G47F] the abundance fitness was -1.01 ± 0.24.
AVCQVIGMYDYTAQNDDELAFNKGQIINVLNKEDPDWWKGEVNGQVELFPSNYVKLTT [G47E] showed an abundance fitness of -0.853 ± 0.15.
AVCQVIGMYDYTAQNDDELAFNKGQIINVLNKEDPDWWKGEVNGQVNLFPSNYVKLTT [G47N] gave an abundance fitness of -0.651 ± 0.24.
In the case of AVCQVIGMYDYTAQNDDELAFNKGQIINVLNKEDPDWWKGEVNGQVALFPSNYVKLTT [G47A], the abundance fitness is reported as -0.755 ± 0.12.
AVCQVIGMYDYTAQNDDELAFNKGQIINVLNKEDPDWWKGEVNGQVGPFPSNYVKLTT [L48P] gave an abundance fitness of -0.886 ± 0.17.
AVCQVIGMYDYTAQNDDELAFNKGQIINVLNKEDPDWWKGEVNGQVGMFPSNYVKLTT [L48M] showed an abundance fitness of -0.111 ± 0.12.
For AVCQVIGMYDYTAQNDDELAFNKGQIINVLNKEDPDWWKGEVNGQVGYFPSNYVKLTT [L48Y], the abundance fitness was -0.056 ± 0.14.
With AVCQVIGMYDYTAQNDDELAFNKGQIINVLNKEDPDWWKGEVNGQVGTFPSNYVKLTT [L48T] the abundance fitness was -0.184 ± 0.12.
AVCQVIGMYDYTAQNDDELAFNKGQIINVLNKEDPDWWKGEVNGQVGQFPSNYVKLTT [L48Q] gave an abundance fitness of -0.479 ± 0.15.
Work on AVCQVIGMYDYTAQNDDELAFNKGQIINVLNKEDPDWWKGEVNGQVGEFPSNYVKLTT [L48E] yielded an abundance fitness of -0.784 ± 0.14.
Work on AVCQVIGMYDYTAQNDDELAFNKGQIINVLNKEDPDWWKGEVNGQVGWFPSNYVKLTT [L48W] yielded an abundance fitness of 0.028 ± 0.094.
With AVCQVIGMYDYTAQNDDELAFNKGQIINVLNKEDPDWWKGEVNGQVGSFPSNYVKLTT [L48S] the abundance fitness was -0.258 ± 0.086.
For AVCQVIGMYDYTAQNDDELAFNKGQIINVLNKEDPDWWKGEVNGQVGFFPSNYVKLTT [L48F], the abundance fitness was 0.146 ± 0.13.
